Data on 1 molecule can be found in patent publication US20200190220A1 (FRED HUTCHINSON CANCER RESEARCH CENTER, published 2020).

Where no end group is shown, it is not given here. [ ]: non-standard residue; d: D form. The star is where a group is joined. FITC = O=C1OC2(c3ccc(O)cc3Oc3cc(O)ccc32)c2ccc(NC(=S)*)cc21; pY = N[C@@H](Cc1ccc(OP(=O)(O)O)cc1)C(=O)O; Ahx = NCCCCCC(=O)O

The target in this test is T1, FITC-labeled peptide with the target sequence for the SH2 domain, EHIpYDEVAAD.
T1 construct: also called N-Glu-His-Ile-pTyr-Asp-Glu-Val-Ala-Ala-Asp-C
T1 peptide: {FITC-Ahx}-EHI[pY]DEVAAD
In words: fluorescence anisotropy of FITC-labeled peptide against rising protein concentration (FIG. 16D). The source says: FIGS. 16A-16E. Functional (peptide-binding) characterization of dTor_12×31L_SH2_single (12× scaffold containing 1 SH2 domain). FIG. 16A: SDS-PAGE electrophoretic analysis of purified dTor_12×31L SH2_single (corresponding to a monomeric cTRP containing 12 repeats, interrupted within repeat #3 by an SH2 domain derived from the human Nck2 adapter protein). FIG. 16B: ribbon diagram of the design of dTor_12×31L SH2_single, visualized from the top and the side of the designed protein repeats. FIG. 16C: Size Exclusion Chromatographic (SEC) separation and analysis of purified dTor_12×31L_SH2_single. Hydrodynamic radii of purified constructs, measured using dynamic light scattering (DLS), is also indicated. FIG. 16D: Binding of peptide corresponding to sequence by dTor_12×31L_SH2_single. Binding measured by monitoring Fluorescence Anisotropy signal from a labeled peptide as a function of increasing protein concentration. […]
Determination of ligand binding using Fluorescence Polarization (FP): Each protein construct was 2-fold serially diluted into twelve concentrations, from 23 μM to 0.011 μM, using FP Buffer (20 mM HEPES+150 mM KCl at pH7.4). […] Background was subtracted from raw perpendicular and parallel fluorescence intensity, which were then converted to fluorescence polarization (mP) by the following equation: […]
On the technique in general: Fluorescence polarisation rises when a labelled molecule tumbles more slowly, as on binding a larger partner.

B1: dTor_12×31L (non-functionalized, lacking any inserted SH2 domain) (designed binder)
chain: GSSMASGISVEELLKLAKAAYYSGTTVEEAYKLALKLGISVEELLKLAEAAYYSGTTVEEAYKLALKLGISVEELLKLAKAAYYSGTTVEEAYKLALKLGISVEELLKLAKAAYYSGTTVEEAYKLALKLGISVEELLKLAEAAYYSGTTVEEAYKLALKLGISVEELLKLAKAAYYSGTTVEEAYKLALKLGISVEELLKLAKAAYYSGTTVEEAYKLALKLGISVEELLKLAEAAYYSGTTVEEAYKLALKLGISVEELLKLAKAAYYSGTTVEEAYKLALKLGISVEELLKLAKAAYYSGTTVEEAYKLALKLGISVEELLKLAEAAYYSGTTVEEAYKLALKLGISVEELLKLAKAAYYSGTTVEEAYKLALKLG
Regarding B1, the binding result is “no binding”.
